From patent publication US4508828A, “Bioassay of parathyroid hormone” (Immuno Nuclear Corporation, priority 1983, dated 1985)
Entries after “also recorded” stand apart in the source; their conditions may differ.

Target: T1, adenylate cyclase-coupled PTH receptors (Rattus norvegicus, UniProt P25961)
T1 construct: 96-well tissue culture plate containing the rat osteogenic sarcoma cells; endogenous in cells; host or cells: rat osteogenic sarcoma cells (obtained by the methods of Partridge et al. 1981 and Majeska et al. 1980)
T1 sequence (P25961 27-591): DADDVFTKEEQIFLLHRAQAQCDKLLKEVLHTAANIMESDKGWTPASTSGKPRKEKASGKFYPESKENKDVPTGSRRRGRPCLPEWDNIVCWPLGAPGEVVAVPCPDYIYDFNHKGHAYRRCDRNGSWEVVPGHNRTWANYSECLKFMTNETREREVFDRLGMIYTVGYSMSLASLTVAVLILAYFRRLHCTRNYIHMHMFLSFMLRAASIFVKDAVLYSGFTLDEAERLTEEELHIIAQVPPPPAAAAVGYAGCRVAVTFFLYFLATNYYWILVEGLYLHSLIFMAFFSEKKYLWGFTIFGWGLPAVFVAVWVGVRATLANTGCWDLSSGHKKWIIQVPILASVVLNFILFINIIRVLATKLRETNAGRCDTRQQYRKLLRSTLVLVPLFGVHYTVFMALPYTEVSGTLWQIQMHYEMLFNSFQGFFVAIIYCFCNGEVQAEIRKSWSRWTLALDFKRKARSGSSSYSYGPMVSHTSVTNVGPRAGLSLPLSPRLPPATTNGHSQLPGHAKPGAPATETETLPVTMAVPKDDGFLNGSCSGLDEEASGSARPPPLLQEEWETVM
Assay: PTH bioassay: cAMP generation in rat osteogenic sarcoma cell culture, cAMP by radioimmunoassay
Assay type: cell-based
Settings: for cell culture response, human versus bovine bioactive PTH: hPTH^1-34 compared with bPTH^1-34, FIG. 2; for bioactivity (cAMP generation): standards of the peptide alone, FIG. 3; for suppression of cAMP generation by serum in the bioassay medium: FIG. 5
Description: Rat osteogenic sarcoma cells are maintained in culture in Dulbecco's modified Eagle medium ("DMEM"), disclosed in R. Dulbecco, VIROLOGY, 8: 396 (1959), J. Smith, et al., VIROLOGY, 12: 185-196 (1960), Tissue Culture Standards Committee, IN VITRO, 6(2): 93 and available from Gibco, Grand Island, N.Y., containing 1% fetal calf serum, 9% heat-inactivated horse serum, 100 units/ml of penecilin G and 100 μg/ml streptomycin sulfate in sodium sulfate and normal saline solution, available as a concentrate from Gibco, supra. Cells are maintained in this medium in a humidified atmosphere of 5% carbon dioxide and 95% air at 37° C. This rat osteogenic sarcoma cell culture can be obtained according to the methods set forth in N. Partridge, et al., "Functional Properties Of Hormonally Responsive Cultured Normal And Malignant Rat Ostoblastic Cells," ENDOCRINOLOGY, 108: 213-219 (1981), which is incorporated in its entirety herein by reference thereto. This method of obtaining the cell culture is further described in R. Majeska, et al., "Parathyroid Hormone--Responsive Clonal Cell Lines From Rat Osteosarcoma," ENDOCRINOLOGY, 107: 1494-1503 (1980) and R. Majeska, "Maintenance Of Parathyroid Hormone Response in Clonal Rat Osteosarcoma Cell Lines," EXP. CELL RES., 111: 465 (1978), also incorporated in their entirety herein by reference thereto.
Cells are subcultured from confluent monolayers by removing the culture medium, rinsing the cell layer with Dulbecco's phosphate buffered saline, 0.2 g/l KCl, 0.2 g/l KH2 PO4, […], and Na2 HPO4.7H2 O and available from Gibco, supra, and adding trypsin/EDTA, 0.5 g trypsin (1:250) and 0.2 g EDTA-4Na/l Hank's balanced salt solution without CaCl2, MGCL2.6H2 O and MgSO4.7H2 O and available from Gibco, supra, to cover the cell layer. After 1 minute at 20°-25° C., the trypsin/EDTA is removed and the cells are incubated for 2-3 minutes at 37° C. The cells are resuspended in DMEM and one-fifth to one-tenth of the cells are added to a culture flask of equal size.
For use in the bioassay of PTH, the above cell suspension is diluted with 4 volumes of DMEM and 0.1 ml of the suspension is pipetted into each well of a 96-well tissue culture plate available from Becton Dickinson Labware, Oxnard, Calif. The cells are cultured in the same atmosphere as above and are ready for use in the bioassay in 24-28 hours.
15. The dried eluates are dissolved in 0.6 ml of bioassay medium at 20°-25° C., said bioassay medium consisting of 0.1% glucose, 1% BSA, 1 mM methylisobutylxanthine, and 0.005% phenol red in Dulbecco's phosphate buffer saline (pH 7.3 or within range of about 7-7.5).
To perform the bioassay of PTH, the medium is removed from all wells of the 96-well tissue culture plate containing the rat osteogenic sarcoma cells by inversion of the plate and blotting of any remaining drops of medium. The plate is replaced upright and 100 μl of the redissolved N-terminal affinity column eluates are added to each of 4 wells of the plate. The plate is incubated at 20°-25° C. for 30 minutes. At this time, the plate is inverted and blotted to remove all remaining medium, replaced upright and placed on ice.
Each well is washed 3 times by addition of 300 μl of ice cold 0.85% saline followed by inversion and […]. After the third saline wash, 200 μl of ice cold 95% ethyl alcohol containing 0.02M HCl (EtOH/HCl) is added to each well and the plate is incubated at -20° C. for 16-24 hours in order to extract the cAMP from the cells. At the end of this extraction, the EtOH/HCl is removed from each well with a pipet and rinsed with an additional 200 μl of EtOH/HCl. The rinse is combined with the original extract and the solution is dried. An appropriate device for drying the EtOH/HCl samples is a Speed-Vac Concentrator/Evaporator, available from Savant Instruments, Inc., Hicksville, N.Y. The amount of cAMP extracted from the cell layer in each well is quantitated using a radioimmunoassay for cAMP. […]

Question: “bPTH^1-34: bovine parathyroid hormone fragment 1-34” was tested. Which “cell culture response, human versus bovine bioactive PTH” value did it give?
Answer: respond similarly; also recorded: very close correlation of response

Question: With “hPTH^1-34: human parathyroid hormone fragment 1-34, available from Peninsula Laboratories” as the molecule, how does the “cell culture response, human versus bovine bioactive PTH” value read?
Answer: respond similarly; also recorded: very close correlation of response

Question: (norleucine^8,18)bPTH^3-34 amide was tested. Which “antagonism of bPTH^1-84 (inhibition of cAMP generation)” value (bPTH^1-84 added to the standards, FIG. 4) did it give?
Answer: very strong antagonist

Question: And the “bioactivity (cAMP generation)” value?
Answer: virtual absence of bioactivity

Question: What about the “bioactivity (cAMP generation)” value (listed as hPTH^3-34 amide) of the same molecule?
Answer: not bioactive

Question: With “hPTH^37-84: human parathyroid hormone fragment 37-84 (LGAPLAPRDAGSQRPRKKEDNVLVESHEKSLGEADKADVNVLTKAKSQ; Parathyroid hormone; UniProt P01270 68-115, looked up, fragment)” as the molecule, how does the “bioactivity (cAMP generation)” value read?
Answer: not bioactive; also recorded: virtual absence of bioactivity

Question: How did the “bioactivity (cAMP generation)” value turn out when “hPTH^65-84: human parathyroid hormone fragment 65-84 (KSLGEADKADVNVLTKAKSQ; Parathyroid hormone; UniProt P01270 96-115, looked up, fragment)” was run?
Answer: not bioactive; also recorded: virtual absence of bioactivity

B1: PTH^1-84: parathyroid hormone 1-84 standards of the bioassay (bovine PTH 1-84 standard) (protein, UniProt P01268 32-115, looked up)
Parathyroid hormone: AVSEIQFMHNLGKHLSSMERVEWLRKKLQDVHNFVALGASIAYRDGSSQRPRKKEDNVLVESHQKSLGEADKADVDVLIKAKPQ
modifications: Parathyroid hormone
Question: Which results are given for B1?
Answer: suppression of cAMP generation by serum in the bioassay medium (10% serum (fetal calf serum) in bioassay medium): 50 fold; suppression of cAMP generation by serum in the bioassay medium (50% serum (human serum) in bioassay medium): 100 fold
